Measured values reported in PMC5314767.

T1: TFAM (human, UniProt Q00059 43-245)
T1 sequence: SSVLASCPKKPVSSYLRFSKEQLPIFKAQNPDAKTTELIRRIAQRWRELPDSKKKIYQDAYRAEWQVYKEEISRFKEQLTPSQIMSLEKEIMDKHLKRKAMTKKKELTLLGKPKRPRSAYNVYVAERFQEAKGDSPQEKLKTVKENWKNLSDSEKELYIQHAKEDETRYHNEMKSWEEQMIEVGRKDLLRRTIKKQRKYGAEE

B1: LSP -41 to -12 upstream fragment (dsDNA)
DNA 1: TGTGTTAGTTGGGGGGTGACTGTTAAAAGT
DNA 2: ACTTTTAACAGTCACCCCCCAACTAACACA
B2: LSP -41 to +10 (dsDNA)
DNA 1: TGTGTTAGTTGGGGGGTGACTGTTAAAAGTGCATACCGCCAAAAGATAAAA
DNA 2: TTTTATCTTTTGGCGGTATGCACTTTTAACAGTCACCCCCCAACTAACACA

Assays:
TFAM [1] = target: T1, TFAM; test: EMSA
POLRMT;TFB2M = POLRMT;TFB2M (human;human, UniProt O00411;Q9H5Q4 43-1230;21-396, |); test: fluorescence anisotropy
POLRMT = POLRMT (human, UniProt O00411 43-1230); test: fluorescence anisotropy
TFAM [2] = target: T1, TFAM; test: fluorescence anisotropy
POLRMT;TFAM = POLRMT;TFAM (human;human, UniProt O00411;Q00059 43-1230;43-245, |); test: fluorescence anisotropy
POLRMT;TFAM;TFB2M = POLRMT;TFAM;TFB2M (human;human;human, UniProt O00411;Q00059;Q9H5Q4 43-1230;43-245;21-396, ||); test: fluorescence anisotropy
Chain of POLRMT;TFAM;TFB2M (O00411 43-1230, chain 1 of 2): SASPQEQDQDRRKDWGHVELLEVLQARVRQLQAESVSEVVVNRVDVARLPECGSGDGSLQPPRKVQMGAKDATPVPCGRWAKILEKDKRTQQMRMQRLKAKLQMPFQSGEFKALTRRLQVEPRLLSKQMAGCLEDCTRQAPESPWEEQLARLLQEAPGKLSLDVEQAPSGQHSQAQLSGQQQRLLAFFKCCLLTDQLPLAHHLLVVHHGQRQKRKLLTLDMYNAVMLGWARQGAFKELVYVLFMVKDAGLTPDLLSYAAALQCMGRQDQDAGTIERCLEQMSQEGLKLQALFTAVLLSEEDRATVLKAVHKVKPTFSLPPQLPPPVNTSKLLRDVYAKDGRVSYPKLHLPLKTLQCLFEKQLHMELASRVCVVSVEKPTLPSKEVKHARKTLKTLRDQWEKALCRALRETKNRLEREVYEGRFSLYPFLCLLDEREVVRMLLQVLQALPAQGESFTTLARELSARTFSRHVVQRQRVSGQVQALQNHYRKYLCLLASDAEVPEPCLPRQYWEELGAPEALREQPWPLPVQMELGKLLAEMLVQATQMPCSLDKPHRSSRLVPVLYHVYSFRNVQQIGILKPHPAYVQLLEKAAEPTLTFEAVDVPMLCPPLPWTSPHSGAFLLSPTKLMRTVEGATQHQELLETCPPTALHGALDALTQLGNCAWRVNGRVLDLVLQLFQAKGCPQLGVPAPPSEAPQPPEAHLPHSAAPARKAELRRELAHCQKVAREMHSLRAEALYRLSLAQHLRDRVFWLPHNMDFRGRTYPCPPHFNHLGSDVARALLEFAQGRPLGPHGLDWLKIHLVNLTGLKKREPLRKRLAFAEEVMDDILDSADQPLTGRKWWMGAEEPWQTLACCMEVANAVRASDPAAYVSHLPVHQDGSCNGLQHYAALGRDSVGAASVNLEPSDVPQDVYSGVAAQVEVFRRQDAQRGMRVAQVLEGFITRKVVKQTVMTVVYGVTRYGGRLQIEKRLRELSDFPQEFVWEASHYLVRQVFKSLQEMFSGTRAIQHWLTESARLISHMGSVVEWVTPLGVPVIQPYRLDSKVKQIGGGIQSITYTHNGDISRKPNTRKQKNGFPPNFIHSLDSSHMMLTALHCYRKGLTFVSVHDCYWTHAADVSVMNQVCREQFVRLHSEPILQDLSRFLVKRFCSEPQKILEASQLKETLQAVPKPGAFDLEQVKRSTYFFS
Chain of POLRMT;TFAM;TFB2M (Q9H5Q4 21-396, chain 3 of 2): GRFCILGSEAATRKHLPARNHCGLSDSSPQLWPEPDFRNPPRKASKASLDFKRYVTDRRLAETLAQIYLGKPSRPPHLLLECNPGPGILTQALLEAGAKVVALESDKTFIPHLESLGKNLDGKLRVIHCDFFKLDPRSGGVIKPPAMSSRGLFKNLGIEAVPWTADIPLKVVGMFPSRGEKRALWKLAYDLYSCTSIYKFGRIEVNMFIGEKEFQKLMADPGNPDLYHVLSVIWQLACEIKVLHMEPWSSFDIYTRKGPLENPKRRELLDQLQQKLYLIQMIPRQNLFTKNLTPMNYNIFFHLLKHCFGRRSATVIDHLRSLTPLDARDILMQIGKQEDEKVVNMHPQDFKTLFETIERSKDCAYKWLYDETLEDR

Chain of POLRMT;TFB2M (O00411 43-1230, chain 1 of 2): as the sequence (O00411 43-1230, chain 1 of 2) above
Chain of POLRMT;TFB2M (Q9H5Q4 21-396, chain 2 of 2): as the sequence (Q9H5Q4 21-396, chain 3 of 2) above
Chain of POLRMT (O00411 43-1230): as the sequence (O00411 43-1230, chain 1 of 2) above
Chain of POLRMT;TFAM (O00411 43-1230, one chain of several): as the sequence (O00411 43-1230, chain 1 of 2) above

Binder	binding result (TFAM [1])	Kd (POLRMT;TFB2M) [nM]	Kd (POLRMT) [nM]	Kd (TFAM [2]) [nM]	Kd (POLRMT;TFAM) [nM]	Kd (POLRMT;TFAM;TFB2M) [nM]
B1	binds	5	8	–	–	–
B2	–	–	–	7	3	4
